Data on 20 molecules can be found in US20230357323A1 (University of Washington, published 2023).

Numbering of substitutions follows the chain as printed. No end group written: not given here.

First the molecules themselves.
T1: human IL-23 cytokine (p19/p40 heterodimer) (human, UniProt Q9NPF7 20-189; P29460 23-328)
T1 construct: recombinant human IL-23 (R&D 1290-IL) is named for the cell assay; also called native ligand
T1 sequence (looked up) 1: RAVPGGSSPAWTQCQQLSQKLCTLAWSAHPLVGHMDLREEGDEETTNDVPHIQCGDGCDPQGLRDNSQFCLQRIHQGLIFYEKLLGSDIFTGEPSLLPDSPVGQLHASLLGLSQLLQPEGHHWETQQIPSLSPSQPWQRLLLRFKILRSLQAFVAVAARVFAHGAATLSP
T1 sequence (looked up) 2: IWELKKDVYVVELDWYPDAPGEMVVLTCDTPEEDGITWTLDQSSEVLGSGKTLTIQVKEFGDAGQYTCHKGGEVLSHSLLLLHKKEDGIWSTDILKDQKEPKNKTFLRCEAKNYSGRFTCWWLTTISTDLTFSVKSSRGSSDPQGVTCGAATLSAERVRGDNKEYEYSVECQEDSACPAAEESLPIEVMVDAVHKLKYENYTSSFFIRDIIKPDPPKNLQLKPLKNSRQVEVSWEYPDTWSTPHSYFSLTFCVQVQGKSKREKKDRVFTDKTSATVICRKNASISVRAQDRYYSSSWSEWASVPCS

B1: human IL-23R (hIL-23R), custom construct with C-terminal avi and his tags, biotinylated (receptor, UniProt Q5VWK5 24-355, looked up, not shown: small tags and cut ends)
chain: GITNINCSGHIWVEPATIFKMGMNISIYCQAAIKNCQPRKLHFYKNGIKERFQITRINKTTARLWYKNFLEPHASMYCTAECPKHFQETLICGKDISSGYPPDIPDEVTCVIYEYSGNMTCTWNAGKLTYIDTKYVVHVKSLETEEEQQYLTSSYINISTDSLQGGKKYLVWVQAANALGMEESKQLQIHLDDIVIPSAAVISRAETINATVPKTIIYWDSQTTIEKVSCEMRYKATTNQTWNVKEFDTNFTYVQQSEFYLEPNIKYVFQVRCQETGKRYWQPWSSLFFHKTPETVPQVTSKAFQHDTWNSGLTVASISTGHLTSDNRGDIG
modifications: enzymatically biotinylated via the avi-tag
notes: immobilized on streptavidin tips in BLI, labeled target in FACS; also called human IL-23 receptor
B2: rA11dslf02_M1P_R8Q_K35W (designed binder)
chain: PEPEKYLQELCKKYYEGKLSQQEAVEEIRKYARKWGLEAWKLVWYFMQCVKRDIHHHHHH
B3: B08 (designed binder)
chain: NLWQIFYVLNTIYKRTGDPTAKKLNKALREALKKHDEKATKELAKKATKYIRS
B4: B0402IE (designed binder)
chain: NLWYIFYLLNTCIKRTCDPTCKVLAKALRECLKKGDLKACSELADKAVDYIRS
B5: B0402SB (designed binder)
chain: QLWQIFYLLNTCIKRTGDPTCKKLIKALRECLKKGDAKACDELAKKAVKYIMS
B6: B0402SD (designed binder)
chain: B5 chain with Q1P, A37P, D41A, K45D, V48M
B7: B0402SG (designed binder)
chain: B5 chain with Q1E, A37P, D41A, V48M
B8: B0402SC (designed binder)
chain: B5 chain with G17C, I25K, K45D
B9: B0402SE (designed binder)
chain: B5 chain with I25K, D41K, L43A, K45D
B10: B0402SA (designed binder)
chain: B5 chain with Q1E, A37M
B11: B0402SF (designed binder)
chain: B5 chain with Q1E, D41S, K45D, V48M
B12: B04dslf02IB (designed binder)
chain: PLWQVFYLLNTCIKRTGDPTCKKLAKALRECLKKGDLKACNELADKAVKYINSHHHHHH
notes: purified form with C-terminal tag; also called B0402IB; BO4dslf02IB
B13: 23R_B (designed binder)
chain: NLWQIFYQLSTILKRTGDPTAKKLLKALAEALKKGDEKALKELAKKATKYIRSHHHHHH
notes: purified from E. coli for BLI
B14: B0402IC (designed binder)
chain: PLWQIFYLLNTCIKRTGDPTCKVLSKALRECLKKGDVKACSELASKAEKYINS
B15: 23R_A (designed binder)
chain: MESEKYLRELVKKYYEGKLSVQEAVEEVRKYARKKGLEAWMLTWMFMELVKRYIHHHHHH
notes: purified from E. coli for BLI
B16: B0402IA (designed binder)
chain: PLWQVFYLLNTCIKRTGDPTCKKLAKALRECLKPGDVKACKEVADKAMDYIRS
B17: B0402ID (designed binder)
chain: ELWQVFYLLNTCIKRTCDPTCKKLAKALRECLKKGDLKACKEDAYKALDYIRS

The target of assay [1] is T1, human IL-23 cytokine (p19/p40 …). Briefly: method not stated here (FIG. 2E lists constants of the native ligand).
Assay [2] has the same target. Briefly: table of binding constants on hIL-23R; biolayer interferometry per paragraph 183 and paragraph 210, method not stated separately for this row. The method, then: (§1) Variants were first screened for relative binding to hIL-23R with biolayer interferometry (BLI). hIL-23R was immobilized on the BLI sensor tips and binding to each variant in solution at a constant concentration (50 nM) was measured to qualitatively determine relative performance of the variants. For the best-performing variants, binding constants (KD, including kₒₙ, and koff) were quantitatively determined with BLI titration experiments in triplicate.
(§2) Qualitative and quantitative assessment of binding affinity was performed using biolayer interferometry (ForteBio Octet™ […] and associated software for analysis). Enzymatically biotinylated target protein (30 nM) was immobilized on streptavidin-coated sensor tips, then sequentially dipped in wells with: buffer only (baseline), inhibitor in solution (association), and buffer only (dissociation). Kinetic constants were determined from the mathematical fit of a 1:1 binding model.

The target in assay [3] is B1. The assay can be described thus: SPR.
Assay [4] has as its target B1. Briefly: biolayer interferometry titration, biotinylated hIL-23R immobilised on streptavidin tips, 1:1 fit. The method, then: as §1, §2
Assay [5] addresses B1. Briefly: biolayer interferometry titration, biotinylated hIL-23R immobilised on streptavidin tips. The method, then:
as §1, §2

Assay [6] deals with B1. Briefly: yeast display FACS, SIF incubation then labeled hIL-23R, 5-7 rounds. The method, then: Yeast libraries were first incubated in SIF at 30C, then washed thoroughly and incubated with labeled hIL-23R, and cells retaining the highest binding signal (top 1-5%) were collected by FACS. Two rounds of selection were performed for each library, and the SIF incubation time and/or concentration of proteases were increased from first to second round. […] Indeed in several libraries we saw a large population of Myc-negative, binding-positive cells. In parallel, we performed two rounds of selection for binding to hIL-23R only, without pre-incubation in SIF. […] Best mutations were included in combinatorial libraries, sorted as above for 5-7 rounds after which individual clones were sequenced. Variants present in the final sorts were expressed in E. coli and characterized (SEQ ID NOS: 70-74 and 153-164).
Yeast strain EBY100 was transformed with each library and vector by electroporation and grow in minimal media selective for the yeast strain (-ura) and the transforming plasmid (-trp).²⁷ Expression was induced with 2% galactose. Surface expression was detected with anti-Myc-FITC (Immunology Consultants Laboratory) conjugate, and binding to biotinylated IL-23R was detected with streptavidin-PE (Invitrogen).
SIF SSM and combinatorial libraries were prepared as follows: after 16-24 hours induction, yeast were spun down, washed with PBSF, resuspended in SIF (recipe described below) at an OD of 2.0, and incubated at 30° C. shaking for 30-90 minutes as noted. After SIF digest, cells were spun down and washed 4 times with 800 uL PBSF, manually aspirating the supernatant each time to ensure complete washing to remove proteases. SIF-treated cells were then treated with target protein as described above.

The target of assay [7] is IL-23R on IL-23 reporter cells (Promega IL-23 Bioassay). Briefly: cell-based or functional assay.
Chain of IL-23R on IL-23 reporter cells (Promega IL-23 Bioassay) (Q5VWK5 whole entry): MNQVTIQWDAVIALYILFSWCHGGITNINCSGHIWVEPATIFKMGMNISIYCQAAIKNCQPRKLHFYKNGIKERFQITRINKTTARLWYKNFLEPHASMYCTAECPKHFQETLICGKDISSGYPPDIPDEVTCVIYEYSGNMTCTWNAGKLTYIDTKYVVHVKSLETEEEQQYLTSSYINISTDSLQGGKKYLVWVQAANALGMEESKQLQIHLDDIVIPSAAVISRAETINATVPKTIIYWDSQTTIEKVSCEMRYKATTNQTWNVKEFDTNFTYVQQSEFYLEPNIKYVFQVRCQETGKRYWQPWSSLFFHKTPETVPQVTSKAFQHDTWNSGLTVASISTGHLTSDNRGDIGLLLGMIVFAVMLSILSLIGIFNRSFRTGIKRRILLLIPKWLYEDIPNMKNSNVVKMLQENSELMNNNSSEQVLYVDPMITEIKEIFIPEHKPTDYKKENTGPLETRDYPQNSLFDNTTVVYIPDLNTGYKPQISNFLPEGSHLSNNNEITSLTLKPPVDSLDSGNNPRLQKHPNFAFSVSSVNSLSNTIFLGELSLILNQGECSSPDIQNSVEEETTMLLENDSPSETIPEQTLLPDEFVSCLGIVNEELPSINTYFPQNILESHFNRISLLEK
For assay [8] the target is unchanged. The assay can be described thus: cell-based or functional assay. This is another data set of the same source.
The target in assay [9] is B1. Briefly: BLI titration, biotinylated hIL-23R on streptavidin tips. The method, then: as §2
Assay [10] concerns the target B1. The assay can be described thus: yeast display FACS.

In [1], B1 had a Kd of 1.7 nM. In addition, in assay [2], the affinity, expressed as Kd, was 1.69 nM; the koff was found to be 0.0013 s⁻¹; the on-rate (kon) amounted to 780000 M⁻¹ s⁻¹.
B2: the affinity in [3], expressed as Kd, was 0.075 nM.
In assay [4], B3 displayed a dissociation constant Kd of 0.046 nM, an off-rate constant (koff) of 4.6e-05 s⁻¹ and an association rate constant (kon) of 990000 M⁻¹ s⁻¹. Moreover, in [5], binding was put at a Kd of 0.046 nM.
For B4, the binding result in assay [6] is “binds”.
The same measure, in the same setting: next, B5: “binds”; B6: “binds”.
Turning to B7, in assay [6], the binding result was “binds”.
Still for that read-out and setting: next, B8: “binds”; B9: “binds”; B10: “binds”.
With B11, in [6], the binding result was “binds”.
Consider B12, for which, in [7], the “Fold better than competitor (IC50 against that of PTG compound C, IL-23 reporter cell assay) [table]” value (“Fold better than competitor” for short) turned out to be 484 fold and the “IC50; inhibition of luciferase signal of IL-23 reporter cells stimulated with 8 ng/mL human IL-23 [table]” value (from here on “IC50; inhibition”) stood at 16 nM. Also, the “IC50 (read off the curve); IL-23-stimulated luciferase signal in IL-23 reporter cells [lower graph]” value in assay [8] is approximately 40 nM. This molecule showed a Kd in assay [3] of less than 0.001 nM.
For the molecule B13, in assay [4], the Kd was found to be 50 nM, the koff worked out at 0.015 s⁻¹ and the kon was determined as 500000 M⁻¹ s⁻¹. This molecule showed an equilibrium dissociation constant (Kd) in [9] of 70 nM.
CKVKCGPVEFEATERWMCFYWYNKYC (designed binder, not fully specified (bridges); cysteine pairing not given here) [23R_mini_17_C11]: in assay [7], the “Fold better than competitor” value worked out at 27 fold and the “IC50; inhibition” value was found to be 281 nM.
In the case of B14, the binding result in assay [6] is reported as “binds”.
In assay [4], B15 gave a dissociation rate constant (koff) of 0.014 s⁻¹ and a kon of 560000 M⁻¹ s⁻¹. This molecule showed a Kd in assay [9] of 26 nM.
With B16, the binding result in assay [6] was “binds”.
Still for that read-out and setting: next, B17: “binds”.
For the molecule ASPELKETCERLERLGMERWLILWCKQRAEEG (designed binder) [23R_mini_08], the binding result in assay [10] is “binds”.
Regarding CRVCKNGFCVDARECWMAYYLLNQYN (designed binder, not fully specified (bridges); cysteine pairing not given here) [23R_mini_14_C4], in [7], the “Fold better than competitor” value was found to be 16 fold and the “IC50; inhibition” value turned out to be 487 nM.
